Assay [1] concerns the target T1, HA-GCN4 hAPRIL (amino acid residues 105-250) (human, UniProt O75888 105-250).
T1 construct: Bought (R&D Systems); also called HA-tagged GCN4 human APRIL; HA-GCN4-huAPRIL; not shown: N-terminal HA tag; GCN4 isoleucine zipper oligomerization domain
T1 sequence: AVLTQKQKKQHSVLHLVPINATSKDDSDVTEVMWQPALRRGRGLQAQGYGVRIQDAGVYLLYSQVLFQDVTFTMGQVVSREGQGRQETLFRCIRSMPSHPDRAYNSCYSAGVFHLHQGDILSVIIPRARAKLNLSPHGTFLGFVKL
The assay can be described thus: indirect ELISA on HA-GCN4 human APRIL, 3-parameter fit. The method, then:
FIG. 5 depicts the binding of anti-APRIL antibodies to human APRIL. Relative binding of select anti-APRIL antibodies was measured by indirect ELISA. Select antibodies based on prior hybridoma screening were recombinantly produced (based on immunoglubin VH and VL gene sequencing) as described. HA-tagged GCN4 human APRIL R&D Systems was used as source of APRIL. Binding data was analyzed by non-linear regression using a three parameter fit.
(§1) Purified antibodies were further characterized for APRIL binding, APRIL species cross reactivity (human APRIL vs. mouse APRIL), and receptor blocking activity using TACI-Fc. For binding, an APRIL-based indirect ELISA was used to determine by first approximation the relative affinity of purified anti-APRIL antibodies to either human APRIL or mouse APRIL. ELISA method was as generally described above. […] Blocking and wash steps were completed as described. Binding of anti-APRIL antibodies to APRIL was quantified using an 8 point dilution of test antibody that spanned over a four log scale. Antibody binding to APRIL was detected using a rabbit anti-mouse IgG (H+L)-HRP conjugate (Jackson ImmunoResearch Laboratories). Antibody binding data was analyzed by non-linear regression analysis using a 3 parameter fit to determine max binding and apparent EC₅₀ values. […] Mouse specific antibody Apry-1-1 (Adipogen) was likewise used for quantification of antibody binding to mouse APRIL.

Assay [2] deals with T1, HA-GCN4 hAPRIL (amino acid residues …). The assay can be described thus: blocking ELISA, 4-parameter fit; blocked: human APRIL binding to human TACI-Fc. Here is the method: (§2) Recombinant TACI-Fc or BCMA-Fc was coated on 96 well plates in 0.1 M carbonate-bicarbonate buffer (pH 9.6), overnight at 4° C. Plates were washed three times with 1×PBST (PBS+0.025% Tween 20) followed by blocking with 1% BSA in 1×PBS, 37° C. for 1 hour. All subsequent wash steps were carried out with 1×PBST. To assess antibody blocking, either 15 ng/mL or 50 ng/mL HA-GCN4-huAPRIL was preincubated with varying antibody concentrations ranging from 0.03-30 μg/mL in binding buffer comprised of 1% BSA and 0.025% Tween-20 in 1×PBS. Preincubation was carried out at 30° C. for 1 hour with mixing. Antibody-APRIL premix with 50 ng/mL APRIL or 15 ng/mL APRIL was then added to TACI-Fc coated or BCMA-Fc coated plates, respectively, and incubated for an additional hour at 30° C. HA-tagged APRIL binding to either receptor was quantified using a goat polyclonal anti-HA tag-HRP antibody (Abcam) added at a 1:10000 dilution followed by colorimetric development using 100 μl/well of freshly prepared TMB substrate (KPL) carried out for up to 30 minutes at room temperature before quenching enzymatic reaction by the addition of 1N sulfuric acid. ELISA signal was quantified by absorbance at 450 nm. ELISA data was analyzed by non-linear regression. IC₅₀ values were calculated based on a 4 parameter fit of antibody titration curves. […] Non-blocking antibodies Aprly-1 or Aprly-5 (Enzo Biosciences) were used as negative controls. Mouse specific, blocking antibody aprily-1-1 (Adipogen) was generally used as a positive control in experiments using mouse APRIL (HA-GCN4-mAPRIL).
On the technique in general: ELISA stands for enzyme-linked immunosorbent assay.

Assay [3] has the same target. The assay can be described thus: blocking ELISA; blocked: human APRIL binding to human TACI-Fc. Details: concentration or dose not given beside the values. The method, then: as §2
Assay [4] has the same target. Nature of the assay: competition ELISA: antibody titrated against human APRIL, read-out APRIL bound to coated human TACI-Fc. The method, then:
Mouse specific antibody Apry-1-1 (Adipogen) was likewise used for quantification of antibody binding to mouse APRIL.
Recombinant TACI-Fc or BCMA-Fc was coated on 96 well plates in 0.1 M carbonate-bicarbonate buffer (pH 9.6), overnight at 4° C. Plates were washed three times with 1×PBST (PBS+0.025% Tween 20) followed by blocking with 1% BSA in 1×PBS, 37° C. for 1 hour. All subsequent wash steps were carried out with 1×PBST. To assess antibody blocking, either 15 ng/mL or 50 ng/mL HA-GCN4-huAPRIL was preincubated with varying antibody concentrations ranging from 0.03-30 μg/mL in binding buffer comprised of 1% BSA and 0.025% Tween-20 in 1×PBS. Preincubation was carried out at 30° C. for 1 hour with mixing. […] HA-tagged APRIL binding to either receptor was quantified using a goat polyclonal anti-HA tag-HRP antibody (Abcam) added at a 1:10000 dilution followed by colorimetric development using 100 μl/well of freshly prepared TMB substrate (KPL) carried out for up to 30 minutes at room temperature before quenching enzymatic reaction by the addition of 1N sulfuric acid. ELISA signal was quantified by absorbance at 450 nm. ELISA data was analyzed by non-linear regression. IC₅₀ values were calculated based on a 4 parameter fit of antibody titration curves. […]

For assay [5] the target is unchanged. The assay can be described thus: blocking ELISA; blocked: human APRIL binding to human BCMA-Fc. More on the design: concentration or dose not given beside the values. Here is the method: as §2
The target is the same in assay [6]. Nature of the assay: indirect ELISA on coated HA-GCN4 human APRIL; EC50 from non-linear regression.
Description: as §1

The values below come from US20170145086A1 (VISTERRA, published 2017).

Values joined by “and” are separate entries in the source; they are usually repeats but may differ in a detail not shown here. Equal entries are not always repeated. Where only a bound is given, the exact number is not on record here.

B1: monoclonal antibody 3125 (antibody, mouse IgG2, V domains shown)
VH: QVQLQQSGAELVRPGASVTLSCKASGYTFTDYEMHWVKQTPVHGLEWIGAIDPETGGTAYNQRFKGKAILTTDKSSITAYMELRSLTSEDSAVYYCTRWNDGDYWGQGTTLTVSS
VL: DVVMTQTPLSLSVTIGQPASISCKSSQSLLYSNGKTYLNWFQQRPGQSPKRLMYQVSKLDPGIPDRFSGSGSETDFTLKISRVEAEDLGLYYCLQGTYYPYTFGGGTKLEIK
What is called EC50 is the concentration giving half of the maximal effect. The IC50 is the concentration that inhibits the measured activity by half. For orientation: % Inhibition means the share of the control response that was lost under treatment. Regarding B1, the concentration giving a half-maximal response (EC50) in assay [1] was 0.281 µg/mL and 1.9 nM; in assay [6], greater than 1 nM. Besides, the IC50 in assay [2] was 113 nM; in assay [4], greater than 10 nM. Further, the “% Inhibition” value in assay [3] was 52%; in assay [5], less than 10%.
